# Measurements as given in publication PMC8390433.
# Biological target: Arc (Activity-regulated cytoskeleton-associated protein, Arg3.1) (UniProt Q9WV31)
# Assay: dynamic light scattering, 20°C and 30°C
# Conditions: reference: wild type Arc; sites T278
substance,measurement,value
"Arc (Activity-regulated cytoskeleton-associated protein, Arg3.1) (from UniProt Q9WV31) T278D",other: DLS large-species diameter (share) at 30°C,stronger; reference 333.00± 68.4 (74%)
